# Source: US20240400708A1
# B1: feline IgG1a S428Y/L314K (antibody, part only; not given: Variable domains, not shown: another chain or arm of the molecule)
# constant: ASTTAPSVFPLAPSCGTTSGATVALACLVLGYFPEPVTVSWNSGALTSGVHTFPAVLQASGLYSLSSMVTVPSSRWLSDTFTCNVAHPPSNTKVDKTVRKTDHPPGPKPCDCPKCPPPEMLGGPSIFIFPPKPKDTLSISRTPEVTCLVVDLGPDDSDVQITWFVDNTQVYTAKTSPREEQFNSTYRVVSVLPILHQDWKKGKEFKCKVNSKSLPSPIERTISKAKGQPHEPQVYVLPPAQEELSRNKVSVTCLIKSFHPPDIAVEWEITGQPEPENNYRTTPPQLDSDGTYFVYSKLSVDRSHWQRGNTYTCSVYHEALHSHHTQKSLTQSPGK
# B2: feline IgG1a D312A (antibody, part only; not given: Variable domains, not shown: another chain or arm of the molecule; small tags and cut ends)
# constant: ASTTAPSVFPLAPSCGTTSGATVALACLVLGYFPEPVTVSWNSGALTSGVHTFPAVLQASGLYSLSSMVTVPSSRWLSDTFTCNVAHPPSNTKVDKTVRKTDHPPGPKPCDCPKCPPPEMLGGPSIFIFPPKPKDTLSISRTPEVTCLVVDLGPDDSDVQITWFVDNTQVYTAKTSPREEQFNSTYRVVSVLPILHQAWLKGKEFKCKVNSKSLPSPIERTISKAKGQPHEPQVYVLPPAQEELSRNKVSVTCLIKSFHPPDIAVEWEITGQPEPENNYRTTPPQLDSDGTYFVYSKLSVDRSHWQRGNTYTCSVSHEALHSHHTQKSLTQSPGK
# B3: feline IgG1a S252F/S434R (antibody, part only; not given: Variable domains, not shown: another chain or arm of the molecule; small tags and cut ends)
# constant: ASTTAPSVFPLAPSCGTTSGATVALACLVLGYFPEPVTVSWNSGALTSGVHTFPAVLQASGLYSLSSMVTVPSSRWLSDTFTCNVAHPPSNTKVDKTVRKTDHPPGPKPCDCPKCPPPEMLGGPSIFIFPPKPKDTLFISRTPEVTCLVVDLGPDDSDVQITWFVDNTQVYTAKTSPREEQFNSTYRVVSVLPILHQDWLKGKEFKCKVNSKSLPSPIERTISKAKGQPHEPQVYVLPPAQEELSRNKVSVTCLIKSFHPPDIAVEWEITGQPEPENNYRTTPPQLDSDGTYFVYSKLSVDRSHWQRGNTYTCSVSHEALHRHHTQKSLTQSPGK
# B4: feline IgG1a S428Y/L314K/S434Y (antibody, part only; not given: Variable domains, not shown: another chain or arm of the molecule)
# constant: ASTTAPSVFPLAPSCGTTSGATVALACLVLGYFPEPVTVSWNSGALTSGVHTFPAVLQASGLYSLSSMVTVPSSRWLSDTFTCNVAHPPSNTKVDKTVRKTDHPPGPKPCDCPKCPPPEMLGGPSIFIFPPKPKDTLSISRTPEVTCLVVDLGPDDSDVQITWFVDNTQVYTAKTSPREEQFNSTYRVVSVLPILHQDWKKGKEFKCKVNSKSLPSPIERTISKAKGQPHEPQVYVLPPAQEELSRNKVSVTCLIKSFHPPDIAVEWEITGQPEPENNYRTTPPQLDSDGTYFVYSKLSVDRSHWQRGNTYTCSVYHEALHYHHTQKSLTQSPGK
# B5: feline IgG1a S428Y/Q311W/L314K (antibody, part only; not given: Variable domains, not shown: another chain or arm of the molecule)
# constant: ASTTAPSVFPLAPSCGTTSGATVALACLVLGYFPEPVTVSWNSGALTSGVHTFPAVLQASGLYSLSSMVTVPSSRWLSDTFTCNVAHPPSNTKVDKTVRKTDHPPGPKPCDCPKCPPPEMLGGPSIFIFPPKPKDTLSISRTPEVTCLVVDLGPDDSDVQITWFVDNTQVYTAKTSPREEQFNSTYRVVSVLPILHWDWKKGKEFKCKVNSKSLPSPIERTISKAKGQPHEPQVYVLPPAQEELSRNKVSVTCLIKSFHPPDIAVEWEITGQPEPENNYRTTPPQLDSDGTYFVYSKLSVDRSHWQRGNTYTCSVYHEALHSHHTQKSLTQSPGK
# B6: feline IgG1a S252Y/D312P/S434Y (antibody, part only; not given: Variable domains, not shown: another chain or arm of the molecule; small tags and cut ends)
# constant: ASTTAPSVFPLAPSCGTTSGATVALACLVLGYFPEPVTVSWNSGALTSGVHTFPAVLQASGLYSLSSMVTVPSSRWLSDTFTCNVAHPPSNTKVDKTVRKTDHPPGPKPCDCPKCPPPEMLGGPSIFIFPPKPKDTLYISRTPEVTCLVVDLGPDDSDVQITWFVDNTQVYTAKTSPREEQFNSTYRVVSVLPILHQPWLKGKEFKCKVNSKSLPSPIERTISKAKGQPHEPQVYVLPPAQEELSRNKVSVTCLIKSFHPPDIAVEWEITGQPEPENNYRTTPPQLDSDGTYFVYSKLSVDRSHWQRGNTYTCSVSHEALHYHHTQKSLTQSPGK
# B7: feline IgG1a S252Y/L314K/S434Y (antibody, part only; not given: Variable domains, not shown: another chain or arm of the molecule; small tags and cut ends)
# constant: ASTTAPSVFPLAPSCGTTSGATVALACLVLGYFPEPVTVSWNSGALTSGVHTFPAVLQASGLYSLSSMVTVPSSRWLSDTFTCNVAHPPSNTKVDKTVRKTDHPPGPKPCDCPKCPPPEMLGGPSIFIFPPKPKDTLYISRTPEVTCLVVDLGPDDSDVQITWFVDNTQVYTAKTSPREEQFNSTYRVVSVLPILHQDWKKGKEFKCKVNSKSLPSPIERTISKAKGQPHEPQVYVLPPAQEELSRNKVSVTCLIKSFHPPDIAVEWEITGQPEPENNYRTTPPQLDSDGTYFVYSKLSVDRSHWQRGNTYTCSVSHEALHYHHTQKSLTQSPGK
# B8: feline IgG1a S428Y/S434Y (antibody, part only; not given: Variable domains, not shown: another chain or arm of the molecule)
# constant: ASTTAPSVFPLAPSCGTTSGATVALACLVLGYFPEPVTVSWNSGALTSGVHTFPAVLQASGLYSLSSMVTVPSSRWLSDTFTCNVAHPPSNTKVDKTVRKTDHPPGPKPCDCPKCPPPEMLGGPSIFIFPPKPKDTLSISRTPEVTCLVVDLGPDDSDVQITWFVDNTQVYTAKTSPREEQFNSTYRVVSVLPILHQDWLKGKEFKCKVNSKSLPSPIERTISKAKGQPHEPQVYVLPPAQEELSRNKVSVTCLIKSFHPPDIAVEWEITGQPEPENNYRTTPPQLDSDGTYFVYSKLSVDRSHWQRGNTYTCSVYHEALHYHHTQKSLTQSPGK
# B9: feline IgG1a S428Y/D312P (antibody, part only; not given: Variable domains, not shown: another chain or arm of the molecule; small tags and cut ends)
# constant: ASTTAPSVFPLAPSCGTTSGATVALACLVLGYFPEPVTVSWNSGALTSGVHTFPAVLQASGLYSLSSMVTVPSSRWLSDTFTCNVAHPPSNTKVDKTVRKTDHPPGPKPCDCPKCPPPEMLGGPSIFIFPPKPKDTLSISRTPEVTCLVVDLGPDDSDVQITWFVDNTQVYTAKTSPREEQFNSTYRVVSVLPILHQPWLKGKEFKCKVNSKSLPSPIERTISKAKGQPHEPQVYVLPPAQEELSRNKVSVTCLIKSFHPPDIAVEWEITGQPEPENNYRTTPPQLDSDGTYFVYSKLSVDRSHWQRGNTYTCSVYHEALHSHHTQKSLTQSPGK
# B10: feline IgG1a S428Y/Q311W/S434Y (antibody, part only; not given: Variable domains, not shown: another chain or arm of the molecule; small tags and cut ends)
# constant: ASTTAPSVFPLAPSCGTTSGATVALACLVLGYFPEPVTVSWNSGALTSGVHTFPAVLQASGLYSLSSMVTVPSSRWLSDTFTCNVAHPPSNTKVDKTVRKTDHPPGPKPCDCPKCPPPEMLGGPSIFIFPPKPKDTLSISRTPEVTCLVVDLGPDDSDVQITWFVDNTQVYTAKTSPREEQFNSTYRVVSVLPILHWDWLKGKEFKCKVNSKSLPSPIERTISKAKGQPHEPQVYVLPPAQEELSRNKVSVTCLIKSFHPPDIAVEWEITGQPEPENNYRTTPPQLDSDGTYFVYSKLSVDRSHWQRGNTYTCSVYHEALHYHHTQKSLTQSPGK
# B11: feline IgG1a S252Y/S434R (antibody, part only; not given: Variable domains, not shown: another chain or arm of the molecule; small tags and cut ends)
# constant: ASTTAPSVFPLAPSCGTTSGATVALACLVLGYFPEPVTVSWNSGALTSGVHTFPAVLQASGLYSLSSMVTVPSSRWLSDTFTCNVAHPPSNTKVDKTVRKTDHPPGPKPCDCPKCPPPEMLGGPSIFIFPPKPKDTLYISRTPEVTCLVVDLGPDDSDVQITWFVDNTQVYTAKTSPREEQFNSTYRVVSVLPILHQDWLKGKEFKCKVNSKSLPSPIERTISKAKGQPHEPQVYVLPPAQEELSRNKVSVTCLIKSFHPPDIAVEWEITGQPEPENNYRTTPPQLDSDGTYFVYSKLSVDRSHWQRGNTYTCSVSHEALHRHHTQKSLTQSPGK
# B12: feline IgG1a S428Y/D312P/S434Y (antibody, part only; not given: Variable domains, not shown: another chain or arm of the molecule; small tags and cut ends)
# constant: ASTTAPSVFPLAPSCGTTSGATVALACLVLGYFPEPVTVSWNSGALTSGVHTFPAVLQASGLYSLSSMVTVPSSRWLSDTFTCNVAHPPSNTKVDKTVRKTDHPPGPKPCDCPKCPPPEMLGGPSIFIFPPKPKDTLSISRTPEVTCLVVDLGPDDSDVQITWFVDNTQVYTAKTSPREEQFNSTYRVVSVLPILHQPWLKGKEFKCKVNSKSLPSPIERTISKAKGQPHEPQVYVLPPAQEELSRNKVSVTCLIKSFHPPDIAVEWEITGQPEPENNYRTTPPQLDSDGTYFVYSKLSVDRSHWQRGNTYTCSVYHEALHYHHTQKSLTQSPGK
# B13: feline IgG1a D312P/L314K (antibody, part only; not given: Variable domains, not shown: another chain or arm of the molecule)
# constant: ASTTAPSVFPLAPSCGTTSGATVALACLVLGYFPEPVTVSWNSGALTSGVHTFPAVLQASGLYSLSSMVTVPSSRWLSDTFTCNVAHPPSNTKVDKTVRKTDHPPGPKPCDCPKCPPPEMLGGPSIFIFPPKPKDTLSISRTPEVTCLVVDLGPDDSDVQITWFVDNTQVYTAKTSPREEQFNSTYRVVSVLPILHQPWKKGKEFKCKVNSKSLPSPIERTISKAKGQPHEPQVYVLPPAQEELSRNKVSVTCLIKSFHPPDIAVEWEITGQPEPENNYRTTPPQLDSDGTYFVYSKLSVDRSHWQRGNTYTCSVSHEALHSHHTQKSLTQSPGK
# B14: feline IgG1a S428Y/Q311W (antibody, part only; not given: Variable domains, not shown: another chain or arm of the molecule)
# constant: ASTTAPSVFPLAPSCGTTSGATVALACLVLGYFPEPVTVSWNSGALTSGVHTFPAVLQASGLYSLSSMVTVPSSRWLSDTFTCNVAHPPSNTKVDKTVRKTDHPPGPKPCDCPKCPPPEMLGGPSIFIFPPKPKDTLSISRTPEVTCLVVDLGPDDSDVQITWFVDNTQVYTAKTSPREEQFNSTYRVVSVLPILHWDWLKGKEFKCKVNSKSLPSPIERTISKAKGQPHEPQVYVLPPAQEELSRNKVSVTCLIKSFHPPDIAVEWEITGQPEPENNYRTTPPQLDSDGTYFVYSKLSVDRSHWQRGNTYTCSVYHEALHSHHTQKSLTQSPGK
# B15: feline IgG1a S428Y/Q311W/D312P (antibody, part only; not given: Variable domains, not shown: another chain or arm of the molecule)
# constant: ASTTAPSVFPLAPSCGTTSGATVALACLVLGYFPEPVTVSWNSGALTSGVHTFPAVLQASGLYSLSSMVTVPSSRWLSDTFTCNVAHPPSNTKVDKTVRKTDHPPGPKPCDCPKCPPPEMLGGPSIFIFPPKPKDTLSISRTPEVTCLVVDLGPDDSDVQITWFVDNTQVYTAKTSPREEQFNSTYRVVSVLPILHWPWLKGKEFKCKVNSKSLPSPIERTISKAKGQPHEPQVYVLPPAQEELSRNKVSVTCLIKSFHPPDIAVEWEITGQPEPENNYRTTPPQLDSDGTYFVYSKLSVDRSHWQRGNTYTCSVYHEALHSHHTQKSLTQSPGK
# Tests used:
# [1] = target: feline FcRn complex (FcRn-α subunit and β-microglobulin), biotin labeled (feline); assay: SPR, pH 7.4
# [2] = target: feline FcRn complex (FcRn-α subunit and β-microglobulin), biotin labeled (feline); assay: SPR, pH 6
Binder,Kd [1] [nM],Kd [2] [nM]
B1,1850,7.63
B2,8180,6.95
B3,398,3.59
B4,17.2,0.793
B5,348,10.1
B6,2.26,0.0221
B7,2.85,0.0496
B8,235,4.65
B9,2760,34.1
B10,1510,3.8
B11,10900,4.12
B12,864,1.48
B13,311,7.24
B14,7630,12.7
B15,4190,26
